Results: the supplement of paper PMC11136658

Tested on: peptide library, one residue held at a place counted from the Y acceptor
Experiment: relative phosphorylation of the sub-library (ratio to the mean residue at this position); higher = residue favoured
Summary of the method: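 Purified recombinant kinases were given 50 μM ATP with γ-32P-ATP and biotinylated Tyr-centred peptide library mixtures for 90 min in 384-well plates. Peptides bound to streptavidin membranes were rinsed and quantified by phosphorimaging, and intensities were normalized per position by the sum of the 18 randomized residues (16 with the Ser/Thr-free library) and multiplied by that number. The reported values are phosphorylation relative to the mean randomized residue.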

Sequence of PTK2, construct: Full length, human (Q05397 whole entry, looked up): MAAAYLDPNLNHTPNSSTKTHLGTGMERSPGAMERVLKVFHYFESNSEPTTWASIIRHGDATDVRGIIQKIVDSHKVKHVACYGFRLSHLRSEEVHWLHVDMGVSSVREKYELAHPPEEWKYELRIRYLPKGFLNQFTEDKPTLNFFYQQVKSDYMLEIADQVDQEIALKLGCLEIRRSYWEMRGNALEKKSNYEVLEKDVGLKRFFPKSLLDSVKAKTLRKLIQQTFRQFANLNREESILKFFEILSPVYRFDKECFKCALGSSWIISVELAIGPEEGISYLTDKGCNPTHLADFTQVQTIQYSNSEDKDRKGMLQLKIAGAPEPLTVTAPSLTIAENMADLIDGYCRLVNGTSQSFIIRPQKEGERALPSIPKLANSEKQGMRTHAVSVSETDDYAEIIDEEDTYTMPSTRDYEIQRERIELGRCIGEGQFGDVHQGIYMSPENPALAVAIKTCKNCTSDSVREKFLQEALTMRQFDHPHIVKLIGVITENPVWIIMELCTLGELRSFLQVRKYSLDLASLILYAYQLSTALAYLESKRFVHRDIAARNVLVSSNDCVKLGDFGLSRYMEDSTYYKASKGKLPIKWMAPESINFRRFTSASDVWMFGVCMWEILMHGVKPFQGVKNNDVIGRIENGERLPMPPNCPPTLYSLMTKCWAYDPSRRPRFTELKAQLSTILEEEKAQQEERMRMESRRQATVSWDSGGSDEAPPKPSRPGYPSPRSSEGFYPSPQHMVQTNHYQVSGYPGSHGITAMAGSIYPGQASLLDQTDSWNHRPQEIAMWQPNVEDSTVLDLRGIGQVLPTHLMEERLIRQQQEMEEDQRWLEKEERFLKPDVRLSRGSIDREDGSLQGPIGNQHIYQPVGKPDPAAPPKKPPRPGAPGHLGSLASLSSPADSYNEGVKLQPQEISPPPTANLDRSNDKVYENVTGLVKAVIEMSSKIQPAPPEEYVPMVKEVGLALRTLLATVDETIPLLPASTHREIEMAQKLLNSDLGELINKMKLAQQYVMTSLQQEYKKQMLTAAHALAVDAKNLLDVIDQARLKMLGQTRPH

PTK2, construct: Full length, human (from UniProt Q05397)
relative phosphorylation
Details	at +1	at +2	at +3	at +4	at +5	at -1	at -2	at -3	at -4	at -5
A fixed	1.98	0.732	0.861	0.842	1.02	0.632	1.05	0.673	0.936	0.931
D fixed	1.73	1.7	0.677	0.971	1.21	5.68	1.57	1.78	1.51	1.39
E fixed	1.85	2.34	0.705	1.19	1.23	1.38	1.77	2.18	1.61	1.37
F fixed	0.794	1.18	1.29	0.961	0.944	0.654	0.858	1.06	1.21	1.02
G fixed	1.09	0.625	0.731	1.14	1.21	0.575	1.03	0.851	1.08	1.1
H fixed	0.724	0.825	0.752	1.17	0.86	0.57	0.801	1.42	0.891	0.935
I fixed	0.99	1.13	2.19	0.964	0.811	1.17	0.839	0.757	0.968	1.11
K fixed	0.526	0.574	0.561	0.743	0.656	0.508	0.688	0.702	0.708	0.806
L fixed	0.66	0.909	1.58	0.792	0.933	0.784	0.814	0.801	1.08	1.04
M fixed	0.833	0.912	1.03	1.04	0.9	0.637	0.76	1.16	0.859	1.04
N fixed	0.699	1.04	0.613	0.759	0.852	0.882	1.42	1.11	0.917	0.976
P fixed	0.506	0.653	1.5	1.07	1.63	0.553	1.25	0.665	0.895	0.934
Q fixed	0.914	0.677	0.631	0.824	0.841	0.578	0.946	0.85	1	0.909
R fixed	0.538	0.612	0.59	0.758	0.678	0.512	0.689	0.78	0.725	0.868
S fixed	1.1	0.804	0.713	0.849	1.07	0.577	1.02	0.742	0.785	0.802
T fixed	0.879	0.815	0.795	0.815	1.21	0.76	0.765	0.702	0.724	0.808
V fixed	1.27	0.965	1.61	0.933	0.868	0.964	0.882	0.719	0.831	0.884
W fixed	0.911	1.52	1.18	2.19	1.07	0.579	0.833	1.05	1.27	1.07
pThr fixed	5.07	4.12	0.915	1.1	1.89	7.51	2.09	1.88	1.74	1.39
pTyr fixed	3.81	12.2	1.18	1.35	1.58	1.35	1.33	1.76	2.01	1.55
